Legend:
[1] = target: T1, human PROKR1 (human, UniProt Q8TCW9 1-393); assay: cell-based or functional assay
[2] = target: mouse PROKR1 (mouse (Mus musculus), UniProt Q9JKL1 1-393); assay: cell-based or functional assay
[3] = target: rat PROKR1 (rat (Rattus norvegicus), UniProt Q8R416 1-393); assay: cell-based or functional assay
[4] = target: cynomolgus monkey PROKR1 (cynomolgus monkey (Macaca fascicularis), UniProt G7PMD0 1-393); assay: cell-based or functional assay
[5] = target: T2, human PROKR2(1-53)-hFc (human); assay: SPR (Biacore 4000), 25 C, antibody captured, antigen injected at 25 and 100 nM
T2 construct: also called soluble human PROKR2 (N-terminal portion)
Method: (§1) Kinetic experiments were carried out using HBS-EP (10 mM HEPES, 150 mM NaCl, 3 mM EDTA, 0.05% Surfactant P20, pH 7.4) as both the running buffer and the sample buffer. Antigen-antibody association rates were measured by injecting 2 concentrations (25 and 100 nM) of both human PROKR1 (1-62)-hFc (SEQ ID NO:179) and human PROKR2(1-53)-hFc (SEQ ID NO:180) over the captured antibody surface. Antibody-antigen association was monitored for 90 seconds while dissociation was monitored for 360 seconds. Kinetic on-rate (kₐ) and off-rate (kd) constants were determined from the data using Scrubber software version 2.0 c. Binding dissociation equilibrium constants (KD) and dissociative half-lives (t 1/2) were calculated from the kinetic rate constants as: KD=kd/kₐ and t 1/2=ln(2)/kd.

[6] = target: T3, human PROKR1 (1-62)-hFc (human); assay: as above
T3 construct: also called soluble human PROKR1 (N-terminal portion)
Method: as §1

[7] = target: T1, human PROKR1; assay: cell-based or functional assay; remark: listed apart in the source
[8] = target: T4, human PROKR2 (human, UniProt Q8NFJ6 1-384); assay: flow cytometry, HEK293 cells expressing the target, 13 nM antibody
T4 construct: Expressed on engineered HEK293 or CHO cells; also called hPROKR2; prokineticin receptor 2
Method: (§2) Anti-PROKR antibodies generated in accordance with Example 1 were tested for the ability to bind to human, mouse, and monkey PROKR1 and PROKR2. For these experiments, HEK293 cells were engineered to express: human PROKR1; human PROKR2; mouse PROKR1; mouse PROKR2; cynomolgus monkey PROKR1; or cynomolgus monkey PROKR2. Binding of anti-human PROKR antibodies to the PROKR-expressing cell lines was measured by flow cytometry.
(§3) Adherent cells were collected using 1 mM EDTA in PBS, then washed, and re-suspended in cold PBS containing 5% FBS. For the binding experiments, each anti-PROKR antibody was added to 250,000 cells in 500 μl of PBS with 5% FBS (final antibody concentration of 13 nM). After incubation for 20 minutes at room temperature, the cells were washed with PBS containing 5% FBS. A secondary antibody, recognizing either human (Jackson Immuno Research, #115-135-205) or mouse Fc (BD Pharmigen, #550826) and conjugated to allophycyanin, was then added to the cell mixture at a final concentration of 13.3 nM. After incubating for 20 minutes on ice, the cells were washed and resuspended in PBS containing 5% FBS and then sorted and analyzed on a FACSCalibur (BD Biosciences) flow cytometer to determine relative binding by the candidate antibodies. The cell samples containing secondary antibody alone were used as negative control for FACS gating. Histograms of cells stained with anti-human PROKR antibodies were compared with cells stained with secondary alone. […] ND=not determined.

[9] = target: T4, human PROKR2; assay: flow cytometry, HEK293 cells expressing the target
Method: as §2, §3

[10] = target: T2, human PROKR2(1-53)-hFc; assay: SPR (Biacore 4000), 25 C, antibody captured
Method: as §1

[11] = target: T5, mouse PROKR2 (mouse (Mus musculus), UniProt Q8K458 1-381); assay: flow cytometry, HEK293 cells expressing the target, 13 nM antibody
T5 construct: whole, on cells; Expressed on engineered HEK293 or CHO cells; also called mPROKR2; CHO/mPROKR2
Method: as §2, §3

Chain of rat PROKR1 (Q8R416 whole entry): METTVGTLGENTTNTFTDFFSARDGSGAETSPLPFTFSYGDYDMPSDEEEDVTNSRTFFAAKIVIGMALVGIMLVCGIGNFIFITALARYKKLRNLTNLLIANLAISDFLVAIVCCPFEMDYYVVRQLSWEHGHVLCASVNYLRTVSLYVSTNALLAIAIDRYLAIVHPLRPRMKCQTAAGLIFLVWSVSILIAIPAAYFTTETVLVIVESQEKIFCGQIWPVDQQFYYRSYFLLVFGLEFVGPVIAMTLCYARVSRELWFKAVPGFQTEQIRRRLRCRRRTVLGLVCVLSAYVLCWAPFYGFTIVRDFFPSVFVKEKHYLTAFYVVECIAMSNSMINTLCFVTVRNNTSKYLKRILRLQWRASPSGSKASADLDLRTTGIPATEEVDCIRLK
T3 sequence (chain, as listed by the source limits assumed): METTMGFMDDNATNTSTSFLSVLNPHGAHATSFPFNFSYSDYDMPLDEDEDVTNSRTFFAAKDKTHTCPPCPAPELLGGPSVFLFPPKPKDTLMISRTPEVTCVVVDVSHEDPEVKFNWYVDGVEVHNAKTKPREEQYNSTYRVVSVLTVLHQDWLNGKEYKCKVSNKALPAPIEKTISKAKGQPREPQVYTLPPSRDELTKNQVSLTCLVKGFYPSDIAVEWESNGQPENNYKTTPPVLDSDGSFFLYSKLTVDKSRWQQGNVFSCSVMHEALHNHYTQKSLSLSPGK
Chain of mouse PROKR1 (Q9JKL1 whole entry): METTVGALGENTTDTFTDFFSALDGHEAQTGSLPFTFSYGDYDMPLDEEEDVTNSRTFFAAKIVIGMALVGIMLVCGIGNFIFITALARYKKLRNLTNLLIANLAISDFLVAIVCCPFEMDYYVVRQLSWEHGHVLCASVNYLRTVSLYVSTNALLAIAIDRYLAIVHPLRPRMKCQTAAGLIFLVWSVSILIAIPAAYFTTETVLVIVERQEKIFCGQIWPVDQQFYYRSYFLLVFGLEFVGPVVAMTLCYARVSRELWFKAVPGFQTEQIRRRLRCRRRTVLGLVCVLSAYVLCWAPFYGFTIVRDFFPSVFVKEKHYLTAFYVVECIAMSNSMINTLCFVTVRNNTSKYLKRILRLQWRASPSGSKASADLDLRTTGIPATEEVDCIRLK
Chain of cynomolgus monkey PROKR1 (G7PMD0 entry or part of it): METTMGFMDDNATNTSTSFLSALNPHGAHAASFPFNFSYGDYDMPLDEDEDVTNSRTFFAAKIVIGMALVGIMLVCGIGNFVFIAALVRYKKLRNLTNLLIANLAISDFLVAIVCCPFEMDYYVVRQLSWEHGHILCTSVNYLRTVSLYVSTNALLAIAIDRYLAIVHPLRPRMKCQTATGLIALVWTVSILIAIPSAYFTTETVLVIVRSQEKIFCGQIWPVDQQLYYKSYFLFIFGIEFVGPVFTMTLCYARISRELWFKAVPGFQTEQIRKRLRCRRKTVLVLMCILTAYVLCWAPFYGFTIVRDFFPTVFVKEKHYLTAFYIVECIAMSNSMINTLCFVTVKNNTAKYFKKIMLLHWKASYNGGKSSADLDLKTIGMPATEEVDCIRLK
T4 sequence (Q8NFJ6 whole entry): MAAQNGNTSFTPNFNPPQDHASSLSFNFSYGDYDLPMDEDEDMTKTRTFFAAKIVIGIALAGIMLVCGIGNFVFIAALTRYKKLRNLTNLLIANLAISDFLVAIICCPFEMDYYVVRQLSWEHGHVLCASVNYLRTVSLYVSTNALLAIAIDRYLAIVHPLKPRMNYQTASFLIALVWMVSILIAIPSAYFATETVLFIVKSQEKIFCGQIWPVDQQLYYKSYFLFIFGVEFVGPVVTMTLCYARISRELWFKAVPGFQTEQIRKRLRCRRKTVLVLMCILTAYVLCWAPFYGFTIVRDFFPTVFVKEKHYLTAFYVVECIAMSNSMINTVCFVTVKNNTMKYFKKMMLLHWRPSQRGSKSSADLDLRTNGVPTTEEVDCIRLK
T1 sequence (Q8TCW9 whole entry): as the sequence (G7PMD0 entry or part of it) above, with A22V, A31T, G40S, V82I, I135V, R210K, F246V, N348D, A350V counted along it
T5 sequence (Q8K458 whole entry): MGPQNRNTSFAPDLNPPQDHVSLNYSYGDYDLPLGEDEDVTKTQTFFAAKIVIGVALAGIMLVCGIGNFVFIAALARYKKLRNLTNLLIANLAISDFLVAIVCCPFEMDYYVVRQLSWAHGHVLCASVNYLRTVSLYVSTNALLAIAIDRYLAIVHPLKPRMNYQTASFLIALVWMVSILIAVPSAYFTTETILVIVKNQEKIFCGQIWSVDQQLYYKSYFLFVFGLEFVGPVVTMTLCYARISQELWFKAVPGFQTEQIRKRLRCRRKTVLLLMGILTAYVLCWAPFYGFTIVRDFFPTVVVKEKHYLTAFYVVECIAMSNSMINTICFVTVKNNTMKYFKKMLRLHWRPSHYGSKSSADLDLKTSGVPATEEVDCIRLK

Row | Binder | Block (%), calcium flux, hPROKR1 + PK1 (1 nM hPK1) [1] [%] | Block (%), calcium flux, hPROKR1 + PK2 (1 nM hPK2) [1] [%] | IC50 (nM), inhibition of calcium flux, hPROKR1 + PK1 (1 nM hPK1) [1] [nM] | IC50 (nM), inhibition of calcium flux, hPROKR1 + PK2 (1 nM hPK2) [1] [nM] | Block (%), calcium flux, mPROKR1 + PK1 (1 nM hPK1) [2] [%] | Block (%), calcium flux, rPROKR1 + PK1 (1 nM hPK1) [3] [%] | Block (%), calcium flux, MfPROKR1 + PK1 (5 nM hPK1) [4] [%] | Block (%), calcium flux, MfPROKR1 + PK2 (0.5 nM hPK2) [4] [%] | IC50 (nM), inhibition of calcium flux, MfPROKR1 + PK1 (5 nM hPK1) [4] [nM] | IC50 (nM), inhibition of calcium flux, MfPROKR1 + PK2 (0.5 nM hPK2) [4] [nM] | Kd [5] [nM] | koff [5] [s⁻¹] | kon [5] [M⁻¹ s⁻¹] | t½ [5] [min] | Kd [6] [nM] | koff [6] [s⁻¹] | kon [6] [M⁻¹ s⁻¹] | t½ [6] [min] | Block (%), calcium flux, hPROKR1 + PK1 (20 nM hPK1) [1] [%] | IC50 (nM), inhibition of calcium flux, hPROKR1 + PK1 (20 nM hPK1) [1] [nM] | other results
1 | H4H6663P (antibody, human IgG4, V domains shown) VH: EVQLVESGGGLVKPGGSLRLSCAASGFTFSNAWMSWVRQVPGKGLEWVGRIKSKTDGGTTDYAAPVKGRFTISRDDPKNTLYLQMYSLKTEDTAVYYCTTRSMQYWGQGTLVTVSS VL: DIVMTQTPLSSPVTLGQPASISCRSSQSLVHSDGYTYLNWLQQRPGQPPRLLIYKISNRFSGVPDRFSGSGAGTDFTLKISRVEAEDVGIYYCMQATQFPTFGQGTKVEIK | – | – | – | – | – | – | – | – | – | – | 129 | 0.0134 | 104000 | 1 | 10.6 | 0.0062 | 583000 | 2 | 15.5 | > 1000 | binding result [8]: binds
2 | H4H6706P (antibody, human IgG4, V domains shown) VH: EVQLVESGGGLIKPGGSLRLSCAASGFTFSNAWMSWVRQAPGKGLEWVGRIKRKSDGGTTDYAAPVKGRFTISRDDSKNTMYLQMNSLKTEDTAVYYCTPSGSYYGYWGQGTLVTVSS VL: not shown | – | – | – | – | – | – | – | – | – | – | – | – | – | – | 1.09 | 0.000213 | 196000 | 54 | 59.1 | 11.2 | binding result [9]: no binding; binding result [10]: no binding (tested: 25 and 100 nM antigen injected)
3 | H4H6669P (antibody, human IgG4, V domains shown) VH: EVQLVESGGGLVKPGGSLRLSCAASGFTFSNAWMTWVRQAPGKGLEWVGRIKRKNDGGTIDYAAPVKGRFTISRDDSKNTLYLQMNSLRTEDTAVYYCIPSGSYYGYWGQGTLVTVSS VL: not shown | – | – | – | – | 0 | – | – | – | – | – | – | – | – | – | 0.264 | 6.23e-05 | 236000 | 186 | 52.4 | 14 | binding result [9]: no binding; binding result [10]: no binding (tested: 25 and 100 nM antigen injected)

Continued by falling Kd [6], values first:

Row | Block (%), calcium flux, hPROKR1 + PK1 (1 nM hPK1) [1] [%] | Block (%), calcium flux, hPROKR1 + PK2 (1 nM hPK2) [1] [%] | IC50 (nM), inhibition of calcium flux, hPROKR1 + PK1 (1 nM hPK1) [1] [nM] | IC50 (nM), inhibition of calcium flux, hPROKR1 + PK2 (1 nM hPK2) [1] [nM] | Block (%), calcium flux, mPROKR1 + PK1 (1 nM hPK1) [2] [%] | Block (%), calcium flux, rPROKR1 + PK1 (1 nM hPK1) [3] [%] | Block (%), calcium flux, MfPROKR1 + PK1 (5 nM hPK1) [4] [%] | Block (%), calcium flux, MfPROKR1 + PK2 (0.5 nM hPK2) [4] [%] | IC50 (nM), inhibition of calcium flux, MfPROKR1 + PK1 (5 nM hPK1) [4] [nM] | IC50 (nM), inhibition of calcium flux, MfPROKR1 + PK2 (0.5 nM hPK2) [4] [nM] | Kd [5] [nM] | koff [5] [s⁻¹] | kon [5] [M⁻¹ s⁻¹] | t½ [5] [min] | Kd [6] [nM] | koff [6] [s⁻¹] | kon [6] [M⁻¹ s⁻¹] | t½ [6] [min] | Block (%), calcium flux, hPROKR1 + PK1 (20 nM hPK1) [1] [%] | IC50 (nM), inhibition of calcium flux, hPROKR1 + PK1 (20 nM hPK1) [1] [nM] | Binder | other results
4 | 101 | 40 | 8.5 | > 300 | 0 | 0 | 99.3 | 85.7 | 32.9 | 63.9 | 16.1 | 0.00857 | 533000 | 1 | 1.12 | 0.000287 | 255000 | 40 | – | – | H4H6698P (antibody, human IgG4, V domains shown) VH: EVQLVESGGGLVKPGGSLRLSCAASGFTFSNVWMTWVRQAPGKGLEWVGRIKTKTDGGTTDYAAPVKGRFTISRDDSKNSLYLQMSSLKTEDTAVYYCTTGHTSYWGQGTLVTVSS VL: not shown | binding result [11]: binds; binding result [8]: binds; IC50 (nM), blocking of hPK1 induced calcium flux, CHO/hPROKR1 non-induced (40 nM hPK1) [7]: 3.1 nM; IC50 (nM), blocking of hPK2 induced calcium flux, CHO/hPROKR1 non-induced (4 nM hPK2) [7]: 27.4 nM
5 | 98.5 | 56.6 | 6.6 | > 300 | 20.9 | 0 | 101 | 50.5 | 6.4 | > 300 | 2.41 | 0.00215 | 891000 | 5 | 1.07 | 0.000412 | 385000 | 28 | – | – | H4H6701P (antibody, human IgG4, V domains shown) VH: EVQLVESGGGLVKPGGSLRLSCAASGFTFSNAWMTWVRQAPGKGLEWVGRTKTKTEGGTTDYAAPVKGRFTISRDDSKNTLYLQMNSLKTEDTAVYYCTTGHIFYWGQGTLVTVSS VL: not shown | IC50 (nM), inhibition of calcium flux, mPROKR1 + PK1 (1 nM hPK1) [2]: > 300 nM; binding result [11]: binds; binding result [8]: binds; IC50 (nM), blocking of hPK1 induced calcium flux, CHO/hPROKR1 non-induced (40 nM hPK1) [7]: 4.1 nM; IC50 (nM), blocking of hPK2 induced calcium flux, CHO/hPROKR1 non-induced (4 nM hPK2) [7]: 21.9 nM
6 | 101 | 77.5 | 6.3 | 55.1 | 0 | 0 | 101 | 93.7 | 6.7 | 51.8 | 11 | 0.00539 | 489000 | 2 | 0.461 | 0.000136 | 294000 | 85 | – | – | H4H6385N (antibody, human IgG4, V domains shown, Form used in SPR and calcium assays; also called H4HM6385N) VH: EVQVVESGGGLVKPGGSLRLSCAASGFTFSNVWMTWVRQAPGKGLEWVGRIKSKIEGGTTDYAASVKGRFTISRDDSKNTQSLQMNSLKSEDTAVYYCSTGHLAYWGQGTLVIVSS VL: DIVMTQTPLSSPVSLGQPASISCRSSQSLVHSDGSTYLSWLQQRPGQPPRLLIYKISNRFSGVPDRFSGSGAGTDFTLKISRVEAEDVGIYYCMQATQFPTFGQGTKVEIK | IC50 (nM), blocking of hPK1 induced calcium flux, CHO/hPROKR1 non-induced (40 or 80 nM hPK1, average) [7]: 14.2 nM; IC50 (nM), blocking of hPK2 induced calcium flux, CHO/hPROKR1 non-induced (4 nM hPK2) [7]: 20 nM
7 | – | – | – | – | 0 | – | – | – | – | – | 4.23 | 0.000253 | 59900 | 46 | 0.197 | 4.55e-05 | 231000 | 254 | 51 | 16.4 | H4H6680P (antibody, human IgG4, V domains shown) VH: EVQLVESGGGLVKPGGSLRLSCAVSGFTFSNAWMTWVRQTPGKGLEWVGRIKRKNEGGTIDYAAPVKGRFTISRDDSKNTLYLQMNSLKTEDTAVYYCTPSGSYYGYWGQGTLVTVSS VL: not shown | –

From patent US20150266957A1 (Regeneron, published 2015)
